Experimental data taken from article PMC11066007, “CORVET-specific subunit levels determine the balance between HOPS/CORVET endosomal tethering complexes” (Scientific Reports, 2024).

T1: Tgfbrap1-FLAG (human, UniProt Q8WUH2 1-860)
T1 construct: Tgfbrap1, human, CORVET-specific subunit; DNA region encoding the full-length protein fused with a FLAG tag; also called CORVET-specific Tgfbrap1; not shown: FLAG, C-terminal, kept
T1 sequence (looked up): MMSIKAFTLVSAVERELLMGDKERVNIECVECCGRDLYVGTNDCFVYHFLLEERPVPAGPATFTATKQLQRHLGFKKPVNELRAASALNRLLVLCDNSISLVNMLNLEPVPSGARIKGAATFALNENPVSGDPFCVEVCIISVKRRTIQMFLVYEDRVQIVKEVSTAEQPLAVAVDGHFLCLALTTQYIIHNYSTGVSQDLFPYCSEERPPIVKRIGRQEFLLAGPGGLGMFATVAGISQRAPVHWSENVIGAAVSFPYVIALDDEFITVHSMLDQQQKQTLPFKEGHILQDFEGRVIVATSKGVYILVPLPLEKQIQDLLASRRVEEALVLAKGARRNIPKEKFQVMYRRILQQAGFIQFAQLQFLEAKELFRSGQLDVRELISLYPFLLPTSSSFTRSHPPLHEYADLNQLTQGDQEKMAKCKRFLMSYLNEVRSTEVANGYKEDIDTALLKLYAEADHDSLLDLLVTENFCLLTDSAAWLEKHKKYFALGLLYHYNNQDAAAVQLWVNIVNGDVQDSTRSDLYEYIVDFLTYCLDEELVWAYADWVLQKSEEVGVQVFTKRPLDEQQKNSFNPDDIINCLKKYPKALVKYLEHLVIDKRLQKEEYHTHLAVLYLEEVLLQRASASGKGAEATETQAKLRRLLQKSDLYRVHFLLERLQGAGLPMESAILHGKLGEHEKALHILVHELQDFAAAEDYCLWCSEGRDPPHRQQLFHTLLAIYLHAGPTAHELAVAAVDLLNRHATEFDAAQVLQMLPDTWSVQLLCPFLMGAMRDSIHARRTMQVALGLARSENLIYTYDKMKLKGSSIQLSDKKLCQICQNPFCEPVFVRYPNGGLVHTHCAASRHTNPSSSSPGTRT

T2: VPS39-FLAG (human, UniProt Q96JC1 1-886)
T2 construct: VPS39, human, HOPS-specific subunit; DNA region encoding the full-length protein fused with a FLAG tag; also called HOPS-specific VPS39; not shown: FLAG, N-terminal, kept
T2 sequence (looked up): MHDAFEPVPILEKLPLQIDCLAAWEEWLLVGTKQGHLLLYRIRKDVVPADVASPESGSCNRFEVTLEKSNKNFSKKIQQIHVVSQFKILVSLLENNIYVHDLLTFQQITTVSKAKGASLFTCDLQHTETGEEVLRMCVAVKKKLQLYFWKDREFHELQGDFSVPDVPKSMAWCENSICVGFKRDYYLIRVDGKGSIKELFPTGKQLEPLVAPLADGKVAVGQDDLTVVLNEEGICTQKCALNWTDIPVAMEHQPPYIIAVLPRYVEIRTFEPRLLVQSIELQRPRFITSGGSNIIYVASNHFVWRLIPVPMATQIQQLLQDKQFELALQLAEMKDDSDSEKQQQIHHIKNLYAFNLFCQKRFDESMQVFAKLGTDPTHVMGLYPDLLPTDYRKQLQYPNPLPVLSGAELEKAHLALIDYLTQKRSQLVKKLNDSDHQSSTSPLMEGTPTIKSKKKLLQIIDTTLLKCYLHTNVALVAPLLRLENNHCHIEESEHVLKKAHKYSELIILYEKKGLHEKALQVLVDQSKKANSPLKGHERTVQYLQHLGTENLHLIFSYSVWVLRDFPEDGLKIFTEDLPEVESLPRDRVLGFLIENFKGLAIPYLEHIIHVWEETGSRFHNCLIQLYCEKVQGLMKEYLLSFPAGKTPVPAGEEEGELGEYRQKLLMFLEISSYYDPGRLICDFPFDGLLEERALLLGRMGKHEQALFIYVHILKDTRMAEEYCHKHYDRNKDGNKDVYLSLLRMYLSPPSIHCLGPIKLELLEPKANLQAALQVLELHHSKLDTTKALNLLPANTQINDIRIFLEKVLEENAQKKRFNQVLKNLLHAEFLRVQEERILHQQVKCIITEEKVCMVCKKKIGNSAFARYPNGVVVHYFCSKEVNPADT

B1: VPS18 (natural protein, human (endogenous in HEK293), UniProt Q9P253 1-973, looked up)
chain: MASILDEYENSLSRSAVLQPGCPSVGIPHSGYVNAQLEKEVPIFTKQRIDFTPSERITSLVVSSNQLCMSLGKDTLLRIDLGKANEPNHVELGRKDDAKVHKMFLDHTGSHLLIALSSTEVLYVNRNGQKVRPLARWKGQLVESVGWNKALGTESSTGPILVGTAQGHIFEAELSASEGGLFGPAPDLYFRPLYVLNEEGGPAPVCSLEAERGPDGRSFVIATTRQRLFQFIGRAAEGAEAQGFSGLFAAYTDHPPPFREFPSNLGYSELAFYTPKLRSAPRAFAWMMGDGVLYGALDCGRPDSLLSEERVWEYPEGVGPGASPPLAIVLTQFHFLLLLADRVEAVCTLTGQVVLRDHFLEKFGPLKHMVKDSSTGQLWAYTERAVFRYHVQREARDVWRTYLDMNRFDLAKEYCRERPDCLDTVLAREADFCFRQRRYLESARCYALTQSYFEEIALKFLEARQEEALAEFLQRKLASLKPAERTQATLLTTWLTELYLSRLGALQGDPEALTLYRETKECFRTFLSSPRHKEWLFASRASIHELLASHGDTEHMVYFAVIMQDYERVVAYHCQHEAYEEALAVLARHRDPQLFYKFSPILIRHIPRQLVDAWIEMGSRLDARQLIPALVNYSQGGEVQQVSQAIRYMEFCVNVLGETEQAIHNYLLSLYARGRPDSLLAYLEQAGASPHRVHYDLKYALRLCAEHGHHRACVHVYKVLELYEEAVDLALQVDVDLAKQCADLPEEDEELRKKLWLKIARHVVQEEEDVQTAMACLASCPLLKIEDVLPFFPDFVTIDHFKEAICSSLKAYNHHIQELQREMEEATASAQRIRRDLQELRGRYGTVEPQDKCATCDFPLLNRPFYLFLCGHMFHADCLLQAVRPGLPAYKQARLEELQRKLGAAPPPAKGSARAKEAEGGAATAGPSREQLKADLDELVAAECVYCGELMIRSIDRPFIDPQRYEEEQLSWL
notes: VPS18, shared class C core subunit of HOPS and CORVET, detected by anti-VPS18 western blot in anti-FLAG precipitates; also called core subunit VPS18; source: endogenous, HEK293 lysate
B2: VPS11 (natural protein, human (endogenous in HEK293), UniProt Q9H270 1-941, looked up)
chain: MAAYLQWRRFVFFDKELVKEPLSNDGAAPGATPASGSAASKFLCLPPGITVCDSGRGSLVFGDMEGQIWFLPRSLQLTGFQAYKLRVTHLYQLKQHNILASVGEDEEGINPLVKIWNLEKRDGGNPLCTRIFPAIPGTEPTVVSCLTVHENLNFMAIGFTDGSVTLNKGDITRDRHSKTQILHKGNYPVTGLAFRQAGKTTHLFVVTTENVQSYIVSGKDYPRVELDTHGCGLRCSALSDPSQDLQFIVAGDECVYLYQPDERGPCFAFEGHKLIAHWFRGYLIIVSRDRKVSPKSEFTSRDSQSSDKQILNIYDLCNKFIAYSTVFEDVVDVLAEWGSLYVLTRDGRVHALQEKDTQTKLEMLFKKNLFEMAINLAKSQHLDSDGLAQIFMQYGDHLYSKGNHDGAVQQYIRTIGKLEPSYVIRKFLDAQRIHNLTAYLQTLHRQSLANADHTTLLLNCYTKLKDSSKLEEFIKKKSESEVHFDVETAIKVLRQAGYYSHALYLAENHAHHEWYLKIQLEDIKNYQEALRYIGKLPFEQAESNMKRYGKILMHHIPEQTTQLLKGLCTDYRPSLEGRSDREAPGCRANSEEFIPIFANNPRELKAFLEHMSEVQPDSPQGIYDTLLELRLQNWAHEKDPQVKEKLHAEAISLLKSGRFCDVFDKALVLCQMHDFQDGVLYLYEQGKLFQQIMHYHMQHEQYRQVISVCERHGEQDPSLWEQALSYFARKEEDCKEYVAAVLKHIENKNLMPPLLVVQTLAHNSTATLSVIRDYLVQKLQKQSQQIAQDELRVRRYREETTRIRQEIQELKASPKIFQKTKCSICNSALELPSVHFLCGHSFHQHCFESYSESDADCPTCLPENRKVMDMIRAQEQKRDLHDQFQHQLKCSNDSFSVIADYFGRGVFNKLTLLTDPPTARLTSSLEAGLQRDLLMHSRRGT
notes: VPS11, shared class C core subunit of HOPS and CORVET, detected by anti-VPS11 western blot in anti-FLAG precipitates; also called core subunit VPS11; source: endogenous, HEK293 lysate

Columns and labels:
Tgfbrap1-FLAG = molecular target: T1, Tgfbrap1-FLAG; test: co-IP; anti-FLAG beads on total lysates of HEK293 cells stably transfected with a FLAG-tagged specific subunit, with or without transient overexpression of the counterpart subunit (control: pCMV); endogenous VPS11 and VPS18 detected by western blot, densitometry with ImageJ; lysis buffer 50 mM TRIS-HCl pH 7.5, 150 mM NaCl, 1% Triton X-100, 5 mM EDTA; 1.5 h at 4 °C; settings: partners not purified
VPS39-FLAG = molecular target: T2, VPS39-FLAG; test: as above; settings: partners not purified

Binder | relative amount bound with Vps39-HA overexpressed (control cells HEK + pCMV as reference) (Tgfbrap1-FLAG) | relative amount bound with Tgfbrap1-HA overexpressed (control cells HEK + pCMV as reference) (VPS39-FLAG)
B1 | 1.31 relative to control cells | 0.63 relative to control cells
B2 | 1.05 relative to control cells | 0.66 relative to control cells
